The values below are quoted from earlier work in US20220370374A1, “TRANSDERMAL ABSORPTION-TYPE PATCH” (KYUSHU UNIVERSITY, NATIONAL UNIVERSITY CORPORATION, priority 2019, published 2022).

Read-outs that look alike come from different tables or passages of the source.

Consider `C[C@@H](O)[C@@H]1NC(=O)[C@H](CCCCN)NC(=O)[C@@H](Cc2c[nH]c3ccccc23)NC(=O)[C@H](Cc2ccccc2)NC(=O)[C@@H](NC(=O)[C@H](N)Cc2ccccc2)CSSC[C@@H](C(=O)N[C@H](CO)[C@@H](C)O)NC1=O` [Octreotide acetate], for which the solubility entry is “freely soluble” (in ethanol, acetic acid, or N-methylpyrrolidone) and “Extremely soluble” (in water).

Take Leuprorelin: the solubility entry is, setting by setting: (in ethanol) “slightly insoluble”; (in methanol) “soluble”; (in water or acetic acid) “freely soluble”.
